In US20260102474A1 (published 2026):
Substitutions are numbered along the chain they refer to.

B1: ACE2-M2-FcKO (Fc fusion)
chain: STIEEQAKYFLDYFNVQAEDLFYQSSLASWNYNTNITEENVQNMNNAGDKWSAFLKEQSTYAQRYPLQEIQNLTVKLQLQALQQNGSSVLSEDKSKRLNTILNTMSTIYSTGKVCNPDNPQECLLLEPGLNEIMANSLDYNERLWAWESWRSEVGKQLRPLYEEYVVLKNEMARANHYEDYGDYWRGDYEVNGVDGYDYSRGQLIEDVEHTFEEIKPLYEHLHAYVRAKLMNAYPSYISPIGCLPAHLLGDMWGRFWTNLYSLTVPFGQKPNIDVTDAMVDQAWDAQRIFKEAEKFFVSVGLPNMTQGFWEYSMLTDPGNVQKAVCHPTAWDLGKGDFRILMCTKVTMDDFLTAHREMGRIQYDMAYAAQPFLLRNGANEGFHEAVGEIMSLSAATPKHLKSIGLLSPDFQEDNETEINFLLKQALTIVGTLPFTYMLEKWRWMVFKGEIPKDQWMKKWWEMKREIVGVVEPVPHDETYCDPASLFHVSNDYSFIRYYTRTLYQFQFQEALCQAAKHEGPLHKCDISNSTEAGQKLFNMLRLGKSEPWTLALENVVGAKNMNVRPLLNYFEPLFTWLKDQNKNSFVGWSTDWSPYADQSIKVRISLKSALGDKAYEWNDNEMYLFRSSVAYAMRQYFLKVKNQMILFGEEDVRVANLKPRISFNFFVTAPKNVSDIIPRTEVEKAIRMSRSRINDAFRLNDNSLEFLGIQPTLGPPNQPPVSSGGGGSGGGGSGGGGSEPKSSDKTHTCPPCPAPPVAGPSVFLFPPKPKDTLMISRTPEVTCVVVGVSHEDPEVKFNWYVDGVEVHNAKTKPREEQYNSTYRVVSVLTVLHQDWLNGKEYKCKVSNKQLPSPIEKTISKAKGQPGQPREPQVYTLPPSRDELTKNQVSLTCLVKGFYPSDIAVEWESNGQPENNYKTTPPVLDSDGSFFLYSKLTVDKSRWQQGNVFSCSVMHEALHNHYTQKSLSLSPGK
B2: ACE2-M1-FcKO (Fc fusion)
chain: B1 chain with Y13K, V16H, Q17E, R64M

Assays:
Test in all cases: competition
[1] = molecular target: SARS-COV-2 full-length trimeric spike protein, Gamma (P.1) (SARS-COV-2)
[2] = molecular target: SARS-COV-2 full-length trimeric spike protein, Alpha (B.1.1.7) (SARS-COV-2)
[3] = molecular target: SARS-COV-2 full-length trimeric spike protein, Beta (B1.351) (SARS-COV-2)
[4] = molecular target: Trimeric S-protein corresponding to Omicron (B.1.1.529) (SARS-COV-2)
[5] = molecular target: SARS-COV-2 full-length trimeric spike protein, Delta (B.1.617.2) (SARS-COV-2)

Binder | IC50 [1] | IC50 [2] | IC50 [3] | IC50 [4] | IC50 [5]
B1 | 3.6 nM | 4.3 nM | 3.9 nM | 0.7 nM | 3.3 nM
B2 | 3.8 nM | 6.9 nM | 3.9 nM | 0.5 nM | 1.8 nM
